Data reported in patent US20150315275A1 (AstraZeneca / MedImmune, published 2015).
Changes are numbered by the printed parent chain. Names may count otherwise. “And” between values parts separate entries of the source, which are not always exact repeats. Identical values can stand only once. Each block holds one binder with its values, some of them ahead of it.

What was measured:
[1] = molecular target: T1, B7-H4ECD his-tagged protein (Sinobiologics) (human, UniProt Q7Z7D3 25-259); assay: ELISA, B7-H4ECD his-tagged protein coated
T1 construct: Bought protein; Result paragraph calls the target human B7-H4; also called B7-H4 extracellular domain; not shown: his tag
T1 sequence: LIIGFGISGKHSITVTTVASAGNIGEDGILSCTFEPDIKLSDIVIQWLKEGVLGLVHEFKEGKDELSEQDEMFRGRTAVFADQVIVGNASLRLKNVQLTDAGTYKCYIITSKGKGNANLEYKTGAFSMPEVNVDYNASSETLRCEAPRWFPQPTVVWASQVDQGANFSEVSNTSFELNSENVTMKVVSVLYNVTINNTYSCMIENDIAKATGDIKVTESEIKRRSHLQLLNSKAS
Description: 100 μl 1 μg/ml B7-H4ECD his-tagged protein (Sinobiologics) diluted in PBS was immobilized on flat bottom 96 well plate (Costar 9017) overnight at 4° C. Plates were washed twice with PBS+0.1% PS-20 and blocked with 200 μl/well PBS 10% FBS at RT for 1 hr. 100 μl chimeric 6H3 and 14 selected 6H3 humanized variants diluted in PBS 10% FBS were added to each well and incubated at RT for 1 hr. Plates were washed three times and 100 μl 1 μg/ml anti-human Ig HRP (Sigma) was added to each well and incubated at RT for 1 hr. Plates were washed six times and 100 μl TMB substrate (SurModics) was added to each well for 5-15 mins 100 μl stop solution (0.1M Sulfuric acid) was added to each well. Plates were read at Absorbance 450 nm by PerkinElmer EnVision 2104 Multilabel Reader.

[2] = molecular target: T2, mouse B7-H4ECD mIgG2a Fc fusion protein (mouse, UniProt Q7TSP5 25-257, limits assumed); assay: ELISA, mouse B7-H4ECD mIgG2a Fc fusion coated
T2 construct: also called mouse B7-H4-mIg fusion protein; Mouse B7-H4-mouse-Ig Fusion Protein; not shown: mouse IgG2a Fc
T2 sequence: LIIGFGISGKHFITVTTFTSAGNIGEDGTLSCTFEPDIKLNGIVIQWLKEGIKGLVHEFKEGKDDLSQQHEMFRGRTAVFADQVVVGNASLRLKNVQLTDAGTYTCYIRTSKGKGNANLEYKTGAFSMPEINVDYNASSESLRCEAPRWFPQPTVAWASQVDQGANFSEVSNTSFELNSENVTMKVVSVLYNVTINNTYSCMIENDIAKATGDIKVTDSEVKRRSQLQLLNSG
Description: 100 μg/ml mouse B7-H4ECD mIgG2a Fc fusion protein diluted in PBS was immobilized on flat bottom 96 well plate (Costar 9017) overnight at 4° C. Plates were washed twice with PBS+0.1% PS-20 and blocked with 200 μl/well PBS 10% FBS at RT for 1 hr. 100 μl chimeric 6H3 and 14 selected 6H3 humanized variants diluted in PBS 10% FBS were added to each well and incubated at RT for 1 hr. Plates were washed three times and 100 μl 1 μg/ml anti-human Ig HRP (Sigma) was added to each well and incubated at RT for 1 hr. Plates were washed six times and 100 μl TMB substrate (SurModics) was added to each well for 5-15 mins 100 μl stop solution (0.1M Sulfuric acid) was added to each well. Plates were read at Absorbance 450 nm by PerkinElmer EnVision 2104 Multilabel Reader.

B7-H4-Ig fusion protein [3] = molecular target: T3, B7-H4-Ig fusion protein (human); assay: competition ELISA on B7-H4-Ig-coated plate, Plate 1; competitor biotinylated mouse 6H3 (5 ng/ml)
T3 construct: also called human B7-H4 Ig
Description: (§1) A 12-point, 3-fold dilution series of 14 humanized 6H3 antibody variants was prepared ranging from 100 μg/ml to 0.5 ng/ml. Dilutions were prepared in assay diluent containing biotinylated mouse anti-human B7-H4 6H3 (SEQ ID NOS:3 and 5 for light chain variable region and heavy chain variable region respectively) at 5 ng/ml. Antibodies were allowed to bind to B7-H4-Ig-coated assay plates (200 ng/well) for 1 hour at room temperature and detected with streptavidin HRP.

[4] = molecular target: T4, human B7-H4 expressed on cells (human, UniProt Q7Z7D3 25-282); assay: flow cytometry on HEK293.hB7-H4 transfectants, one-site specific binding fit
T4 construct: the cell line is named under assay or readout; also called full length human B7-H4 on HEK293 cells; 293T.hB7-H4
T4 sequence: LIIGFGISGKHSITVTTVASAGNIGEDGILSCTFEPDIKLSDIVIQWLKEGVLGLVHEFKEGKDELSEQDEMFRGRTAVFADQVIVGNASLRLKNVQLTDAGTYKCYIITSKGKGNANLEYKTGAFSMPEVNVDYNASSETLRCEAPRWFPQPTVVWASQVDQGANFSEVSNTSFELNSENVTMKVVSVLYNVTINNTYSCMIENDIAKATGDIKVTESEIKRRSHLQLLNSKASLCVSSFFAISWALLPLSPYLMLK
Description: For each staining, 0.2 million HEK293.hB7-H4 transfectants were resuspended in 100 μl flow cytometry buffer (PBS+2% FBS). A serial dilution of chimeric 6H3 and 14 humanized variants of 0, 0.1 ng, 0.3 ng, 1 ng, 3 ng, 10 ng, 30 ng, 100 ng, 300 ng, 1 μg, 3 μg and 10 μg were added to the cells and incubated at 4° C. for 30 min. Cells were then washed twice with 2 ml flow cytometry buffer, and resuspended in 100 μl flow cytometry buffer. 1 μl anti-hIg PE secondary antibody (Biolegend) was added and incubated with the cells for 15 mins Samples were then washed and resuspended in 100 μl flow cytometry buffer. Flow Cytometry data was acquired using BD Canto (BD Biosciences) in plate format and analyzed by FlowJo software. Staining data (MFI) was then input into Prism 5 software to generate binding curve. Curve-fit using one-site specific binding algorithm calculates individual KD for each variant.

B7-H4-Ig fusion protein [5] = molecular target: T3, B7-H4-Ig fusion protein; assay: competition ELISA on B7-H4-Ig-coated plate, Plate 2; competitor biotinylated mouse 6H3 (5 ng/ml)
Description: as §1

[6] = molecular target: T4, human B7-H4 expressed on cells; assay: saturation binding, flow cytometry on 624mel/B7-H4 cells, biotinylated mAb, azide-treated cells; unit not given
Description: A saturation binding experiment was carried out on 624mel/B7-H4 cells using the chimeric 6H3 mAb and humanized variants of 6H3. Briefly, 50,000 cells were pretreated with 0.1% azide on ice for 30 minutes to inhibit B7-H4 internalization then stained for 30 minutes with biotinylated anti-B7-H4 mAbs. The mAbs were diluted in a 12-point, 3-fold dilution series ranging from 200 μg/ml down to 1 ng/ml. Cell were stained with streptavidin PE for 10 minutes, washed, fixed and analyzed by flow cytometry.
FIGS. 35A-35B are binding curves for the raw (FIG. 35A) and background subtracted data (FIG. 35B). […] The subtracted values were used to determine the Kd and Bmax. The antibodies appear to fall into two groups based on Kd values (Table 10).

B1: humanized 6H3 variant 4 (antibody, V domains shown)
VH: EVQLVQSGAEMKKPGASVKVSCKASGYTFTDYYMNWVRQAPGQSLEWIGVINPYNGDTTYNQKFQGRVTVTVDKSATTAYMELSSLRSEDTAVYYCARYPESTYWGQGTLVTVSS
VL: DVVMTQSPLSLPVTLGQPASISCRSSQSLVHINGNTYLHWYQQRPGQSPRVLIYKVSNRFSGVPDRFSGSGSGTDFTLKISRVEAEDVGVYFCSQSTHVPLTFGGGTKVEIK
notes: also called V4; Variant 4 (antibody)
EC50 [1]: 1.16 nM | EC50 [2]: 0.08 nM | EC50 (B7-H4-Ig fusion protein [3]): 2.95 µg/mL and 19.7 nM | Bmax(MFI) [4]: 580 MFI | Kd [4]: 5.2 nM

B2: humanized 6H3 variant 1 (antibody, V domains shown)
VH: QVQLVQSGAEVKKPGASVKVSCKASGYTFTDYYMHWVRQAPGQGLEWMGIINPYNGDTSYAQKFQGRVTMTRDTSTSTVYMELSSLRSEDTAVYYCARYPESTYWGQGTLVTVSS
VL: B1 VL
notes: also called V1; H1A L1B
EC50 [2]: 0.1 nM

B3: humanized 6H3 variant 8 (antibody, V domains shown)
VH: B2 VH
VL: B1 VL with V2I, S7T, G105Q
notes: also called V8; H1A L2B
EC50 [2]: 0.06 nM

B6: humanized 6H3 variant 6 (antibody, V domains shown)
VH: B1 VH with I48M, T71A
VL: B1 VL with Q42L, R50K
notes: also called V6; Variant 6 (antibody)
EC50 [1]: 1.64 nM | EC50 [2]: 0.13 nM | EC50 (B7-H4-Ig fusion protein [3]): 2.53 µg/mL and 16.9 nM | Bmax(MFI) [4]: 526 MFI | Kd [4]: 5 nM | Bmax [6]: 6420

B9: humanized 6H3 variant 3 (antibody, V domains shown)
VH: B1 VH with I48M, T71A
VL: B1 VL
notes: also called V3; H2B L1B
EC50 [1]: 1.19 nM | EC50 [2]: 0.1 nM | EC50 (B7-H4-Ig fusion protein [3]): 3.09 µg/mL and 20.6 nM | Bmax(MFI) [4]: 583 MFI | Kd [4]: 6 nM

B10: humanized 6H3 variant 5 (antibody, V domains shown)
VH: B1 VH with M11V, S44G, V50I, T59S, Q65K, V70L, A76T, T77S
VL: B1 VL with Q42L, R50K
notes: also called V5; Variant 5 (antibody)
EC50 [1]: 0.95 nM | EC50 [2]: 0.05 nM | EC50 (B7-H4-Ig fusion protein [3]): 3.62 µg/mL and 24.2 nM | Bmax(MFI) [4]: 646 MFI | Kd [4]: 4.2 nM

B12: humanized 6H3 variant 2 (antibody, V domains shown)
VH: B1 VH with M11V, S44G, V50I, T59S, Q65K, V70L, A76T, T77S
VL: B1 VL
notes: also called V2; 6H3 V2
EC50 [1]: 0.51 nM | EC50 [2]: 0.08 nM | EC50 (B7-H4-Ig fusion protein [3]): 2.46 µg/mL and 16.4 nM | Bmax(MFI) [4]: 603 MFI | Kd [4]: 2.4 nM | Bmax [6]: 4650

B13: humanized 6H3 variant 7 (antibody, V domains shown)
VH: B1 VH
VL: B1 VL with Q42L, R50K
notes: also called V7; 6H3 V7
EC50 [1]: 1.07 nM | EC50 [2]: 0.11 nM | EC50 (B7-H4-Ig fusion protein [3]): 2.63 µg/mL and 17.5 nM | Bmax(MFI) [4]: 513 MFI | Kd [4]: 6.5 nM | Bmax [6]: 6080

B14: chimeric 6H3 (antibody, V domains shown)
VH: EVQLQQSGPVLVKPGTSVKMSCKASGYTFTDYYMNWVKQSHGKSLEWIGVINPYNGDTTYNQKFKGKATLTVDKSSSTAYMEVNSLTFEDSAVYYCARYPESTYWGQGTLVTVSA
VL: DVVMTQTPLSLPVSLGDQASISCRSSQSLVHINGNTYLHWYLQKPGQSPKVLIYKVSNRFSGVPDRFSGSGSGTDFTLKISRVEAEDLGVYFCSQSTHVPLTFGAGTKLELK
notes: Mouse variable regions with constant regions from the human IgG1 heavy chain and human kappa light chain; also called human chimeric 6H3; hc6H3
EC50 [1]: 0.62 nM | EC50 (B7-H4-Ig fusion protein [5]): 2.26 µg/mL and 15.1 nM | EC50 [2]: 0.09 nM | EC50 (B7-H4-Ig fusion protein [3]): 2.44 µg/mL and 16.2 nM | Bmax(MFI) [4]: 316 MFI | Kd [4]: 5.8 nM | Bmax [6]: 5810

Continued, values first:

EC50 [1]: 0.97 nM | EC50 (B7-H4-Ig fusion protein [5]): 2.2 µg/mL and 14.7 nM | EC50 [2]: 0.11 nM | Bmax(MFI) [4]: 648 MFI | Kd [4]: 6.9 nM
B4: humanized 6H3 variant 11 (antibody, V domains shown)
VH: B1 VH
VL: B1 VL with V2I, S7T, G105Q
notes: also called V11; H2C L2B

EC50 [1]: 0.89 nM | EC50 (B7-H4-Ig fusion protein [5]): 2.13 µg/mL and 14.2 nM | EC50 [2]: 0.13 nM | Bmax(MFI) [4]: 662 MFI | Kd [4]: 5.5 nM
B5: humanized 6H3 variant 10 (antibody, V domains shown)
VH: B1 VH with I48M, T71A
VL: B1 VL with V2I, S7T, G105Q
notes: also called V10; H2B L2B

EC50 [1]: 0.68 nM | EC50 (B7-H4-Ig fusion protein [5]): 2.49 µg/mL and 16.6 nM | EC50 [2]: 0.11 nM | Bmax(MFI) [4]: 629 MFI | Kd [4]: 5.8 nM | Bmax [6]: 5580
B7: humanized 6H3 variant 14 (antibody, V domains shown)
VH: B1 VH
VL: B1 VL with V2I, S7T, Q42L, R50K, G105A
notes: also called V14; 6H3 V14

EC50 [1]: 0.92 nM | EC50 (B7-H4-Ig fusion protein [5]): 2.11 µg/mL and 14.1 nM | EC50 [2]: 0.13 nM | Bmax(MFI) [4]: 648 MFI | Kd [4]: 7 nM
B8: humanized 6H3 variant 13 (antibody, V domains shown)
VH: B1 VH with I48M, T71A
VL: B1 VL with V2I, S7T, Q42L, R50K, G105A
notes: also called V13; H2B L2C

EC50 [1]: 0.75 nM | EC50 (B7-H4-Ig fusion protein [5]): 2.69 µg/mL and 17.9 nM | EC50 [2]: 0.07 nM | Bmax(MFI) [4]: 553 MFI | Kd [4]: 1.8 nM | Bmax [6]: 4610
B11: humanized 6H3 variant 9 (antibody, V domains shown)
VH: B1 VH with M11V, S44G, V50I, T59S, Q65K, V70L, A76T, T77S
VL: B1 VL with V2I, S7T, G105Q
notes: also called V9; 6H3 V9

EC50 [1]: 0.78 nM | EC50 (B7-H4-Ig fusion protein [5]): 3 µg/mL and 20 nM | EC50 [2]: 0.09 nM | Bmax(MFI) [4]: 597 MFI | Kd [4]: 3.2 nM | Bmax [6]: 4580
B15: humanized 6H3 variant 12 (antibody, V domains shown)
VH: B1 VH with M11V, S44G, V50I, T59S, Q65K, V70L, A76T, T77S
VL: B1 VL with V2I, S7T, Q42L, R50K, G105A
notes: also called V12; 6H3 V12
